Test results published in patent US6355256B1, “Compositions containing a p53 derived protein or peptide, an adjuvant, and interleukin-12 and uses thereof” (Ludwig Institute for Cancer Research, priority 1994, dated 2002).
Entries after “also recorded” stand apart in the source; their conditions may differ. No end group written: not given here.

Legend:
[1] = test system: P1-HTR cells pulsed with peptide; assay: Generation of peptide-specific CTLs after immunization with peptide, adjuvant and IL-12 (51Cr release assay); assay type: cell-based, BALB/C mice
[2] = test system: Meth A sarcoma; assay: Suppression of growth of established Meth A tumors by peptide in adjuvant plus low dose IL-12; assay type: in vivo, BALB/C mice; settings: for suppression of tumor growth: peptide in QS-21 or QS-21 alone at days 7 and 14 after Meth A challenge, IL-12 1 ng, 4 times a week for two weeks from day 7
Method: As with the prior experiments, female BALB/C mice were injected with 5×10^4 Meth A cells at day 0. The mice received two injections of the mutant peptide in QS-21, the wild type peptide in QS-21, or QS-21 alone in the same manner described in Example 3, at weekly intervals. At day 7, the mice began receiving injections of 1 ng of IL-12 (4 times a week, for two weeks).
FIG. 4A resulted from QS-21 plus the mutant peptide followed by injections of IL-12. FIG. 4B resulted from QS-21 plus peptide, followed by injections with IL-12. FIG. 4C resulted from QS-21 alone followed by injections of IL-12.

[3] = test system: Meth A sarcoma; assay: Anti-tumor effect of IL-12 on established Meth A sarcoma in mice (tumor diameter); assay type: in vivo, BALB/C mice
Method: The in vivo model employed used the transplantable, methylcholanthrene-induced sarcoma “Meth A.” This is a sarcoma of BALB/C (murine) origin, passaged as an ascitic tumor. See Old, et al, Ann. N.Y. Acad. Sci 101:80-106 (1962), incorporated by reference in its entirety.
BALB/C female mice were injected intradermally with 5×10^4 Meth A cells on day 0. Seven days later, a treatment regime began, wherein the animals received doses of IL-12, 4 times a week. Control animals received no IL-12. The remaining animals received 1 ng, 10 ng, 100 ng, or 500 ng of IL-12 in each dose, administered by intraperitoneal injection.
The effect of the IL-12 on the induced tumors was observed by measuring the diameter of the tumors at the end of the treatment period. FIGS. 1A, 1B, 1C, 1D and 1E show this. The panels show results with doses of 0 ng, 1 ng, 10 ng, 100 ng, and 500 ng, respectively.
The effect of the IL-12 was abolished by administering monoclonal antibodies against CD8 molecules, but was not affected via administration of anti-CD4 mAbs.

[4] = test system: Meth A sarcoma; assay: Timing of IL-12 administration relative to Meth A challenge; assay type: in vivo, BALB/C mice; settings: 100 ng IL-12 at day -14, day 0 or day 7 relative to Meth A challenge
Method: The importance of timing in the administration of IL-12 was then studied. In these experiments, female BALB/C mice were again injected with 5×10^4 Meth A cells, as in Example 1 (day 0). Injections of 100 ng IL-12 were administered at day “−14” (i.e., 14 days before challenge with the tumor cells), day 0, or day 7 (i.e., 7 days after challenge) as in Example 1.

Row | Molecule | CTLs elicited following immunization ([1]; 100 μg peptide twice at weekly intervals, regardless of the adjuvant (QS-21 or IFA) or treatment with IL-12) | suppression of tumor growth [2] | anti-tumor effect (diameter of the tumors at the end of the treatment period) ([3]; IL-12 1, 10, 100 or 500 ng i.p., 4 times a week from day 7 after 5×10^4 Meth A cells intradermally) | effect of the IL-12 on tumors when anti-CD4 mAbs are administered ([3]; with anti-CD4 mAbs) | effect of the IL-12 on tumors when monoclonal antibodies against CD8 are administered ([3]; with anti-CD8 mAbs) | effectiveness by timing of administration [4] | optimal dose of IL-12 for the generation of CTLs ([1]; IL-12 0.1, 1, 10 or 100 ng, four times over two weeks, with peptide in QS-21 or IFA) [ng] | effect of higher doses of IL-12 on generation of CTLs ([1]; IL-12 doses above 1 ng, with peptide in QS-21 or IFA) | stimulation of an immune response when used alone ([2]; each component alone, summary of the examples)
1 | KYMCNSSCM (cysteine pairing not given here) [wild type peptide, wild type counterpart of peptide 234 CM] | No CTLs were elicited | did not lead to suppression of tumor growth |  |  |  |  |  |  | 
2 | IL-12: the cytokine interleukin-12 (protein, UniProt P29459 23-219; P29460 23-328, looked up) Interleukin-12 subunit alpha: RNLPVATPDPGMFPCLHHSQNLLRAVSNMLQKARQTLEFYPCTSEEIDHEDITKDKTSTVEACLPLELTKNESCLNSRETSFITNGSCLASRKTSFMMALCLSSIYEDLKMYQVEFKTMNAKLLMDPKRQIFLDQNMLAVIDELMQALNFNSETVPQKSSLEEPDFYKTKIKLCILLHAFRIRAVTIDRVMSYLNAS Interleukin-12 subunit beta: IWELKKDVYVVELDWYPDAPGEMVVLTCDTPEEDGITWTLDQSSEVLGSGKTLTIQVKEFGDAGQYTCHKGGEVLSHSLLLLHKKEDGIWSTDILKDQKEPKNKTFLRCEAKNYSGRFTCWWLTTISTDLTFSVKSSRGSSDPQGVTCGAATLSAERVRGDNKEYEYSVECQEDSACPAAEESLPIEVMVDAVHKLKYENYTSSFFIRDIIKPDPPKNLQLKPLKNSRQVEVSWEYPDTWSTPHSYFSLTFCVQVQGKSKREKKDRVFTDKTSATVICRKNASISVRAQDRYYSSSWSEWASVPCS |  | strong suppression of tumor growth; also recorded: growth suppressive effect | dose dependent anti-tumor effect | not affected | abolished | most effective after the tumor had become established; also recorded: particularly effective after tumors have already formed | 1 | suppressive effect | none
